Assay results taken from paper PMC11809415 (The Journal of Cell Biology, 2025).

Biological target: F-actin (rabbit skeletal muscle α-actin filaments) (rabbit, UniProt P68135 1-377)
Test: co-sedimentation; 2 µM F-tractinopt-mCherry fusions incubated with F-actin at increasing concentrations for 5 min at room temperature, 120,000 g for 20 min at 4°C; supernatant and pellet on SDS-PAGE, densitometry; Kd by GraphPad Prism
Settings: both partners purified

B1: F-tractinopt–mCherry fusion (domain or fragment)
chain: APRRSVGELRLLFEARAASAA
notes: rat inositol 1,4,5-trisphosphate 3-kinase A; numbers count on: the 43-residue F-tractin peptide (peptide residue n = kinase residue n+9); source: E. coli BL21-CodonPlus(DE3)-RIPL, purified (Protino Ni-IDA resin)
Work on B1 yielded a Kd of 8.5 ± 1.2 µM.
